From publication PMC12032424

Legend:
TDP-43 NTD, 1-80 [1] = biological target: TDP-43 NTD, 1-80 (UniProt Q13148); assay: size exclusion chromatography; settings: reference: unmodified TDP1-80; sites S48
TDP-43 NTD, 1-80 [2] = biological target: TDP-43 NTD, 1-80 (UniProt Q13148); assay: BS3 crosslinking, SDS-PAGE; settings: reference: unmodified TDP1-80; sites S48
TDP-43 1-414 = TDP-43 1-414 (UniProt Q13148); assay: sedimentation assay, supernatant by SDS-PAGE; settings: reference: unmodified TDP1-414; sites S48

Row | Substance | binding against the reference (TDP-43 NTD, 1-80 [1]) | binding against the reference (TDP-43 NTD, 1-80 [2]) | binding against the reference (TDP-43 1-414)
1 | TDP-43 NTD, 1-80 (from UniProt Q13148) TDP1-80(pS48) | weaker | weaker | –
2 | TDP-43 1-414 (from UniProt Q13148) TDP1-414(pS48) | – | – | weaker
